Data on 2 molecules can be found in PMC9463536 (The Journal of Biological Chemistry, 2022).

The target in the experiment is biotinylated claudin-4–cCpE^1 complex (Homo sapiens claudin-4; Clostridium …, UniProt O14493;P01558, biotin (NHS-PEG4-biotin; sites not stated)). The experiment can be described thus: BLI. The note with it: both partners purified.
Sequence of biotinylated claudin-4–cCpE^1 complex (O14493 whole entry, chain 1 of 2): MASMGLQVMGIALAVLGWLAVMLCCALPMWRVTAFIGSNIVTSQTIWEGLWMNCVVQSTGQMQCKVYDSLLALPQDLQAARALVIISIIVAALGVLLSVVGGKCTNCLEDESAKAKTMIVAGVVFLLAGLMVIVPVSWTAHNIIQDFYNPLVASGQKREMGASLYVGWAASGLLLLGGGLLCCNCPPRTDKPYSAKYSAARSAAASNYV
Sequence of biotinylated claudin-4–cCpE^1 complex (P01558 197-319, chain 2 of 2): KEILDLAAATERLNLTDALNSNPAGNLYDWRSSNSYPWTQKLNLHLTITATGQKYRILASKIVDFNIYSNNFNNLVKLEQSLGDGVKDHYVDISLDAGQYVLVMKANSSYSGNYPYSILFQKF

B1: COP-3 (CpE Obstructing Protein 3), synthetic antigen-binding fragment (Fab, V domains shown)
VH: EVQLVESGGGLVQPGGSLRLSCAASGFNFYSSSIHWVRQAPGKGLEWVAYISSYSGYTYYADSVKGRFTISADTSKNTAYLQMNSLRAEDTAVYYCARGYGYFDYNFSVGYALDYWGQGTLVTVSS
VL: DIQMTQSPSSLSASVGDRVTITCRASQSVSSAVAWYQQKPGKAPKLLIYSASSLYSGVPSRFSGSRSGTDFTLTISSLQPEDFATYYCQQSHPWYYPITFGQGTKVEIK
notes: also called sFab; source: E. coli BL21-Gold, purified (MabSelect SuRe, Resource S)
By Kd is commonly meant a measure of binding affinity in units of concentration. A high value points to a looser complex. A word on the koff: it is the rate constant with which the complex falls apart. Lower therefore signals a long-lived complex. What is called kon is a measure of how fast the partners come together. A lower kon goes with slow association. Molecule B1 displayed a dissociation constant Kd of 0.2 ± 0.0055 µM, a koff of 0.0039 s⁻¹ and a kon of 19000 M⁻¹ s⁻¹.

B2: COP-2 (CpE Obstructing Protein 2), synthetic antigen-binding fragment (Fab, V domains shown)
VH: EVQLVESGGGLVQPGGSLRLSCAASGFNFSSSSIHWVRQAPGKGLEWVASISSYSGYTSYADSVKGRFTISADTSKNTAYLQMNSLRAEDTAVYYCARYWSWYNSSHYIYSALDYWGQGTLVTVSS
VL: DIQMTQSPSSLSASVGDRVTITCRASQSVSSAVAWYQQKPGKAPKLLIYSASSLYSGVPSRFSGSRSGTDFTLTISSLQPEDFATYYCQQSYEWAPVTFGQGTKVEIK
notes: as for B1
B2 came in with an equilibrium dissociation constant (Kd) of 0.1613 ± 0.0006 µM, a koff of 0.0012 s⁻¹ and a kon of 7700 M⁻¹ s⁻¹.
